Blank lines part the entries; values can stand above or below the binder they belong to.
Legend:
[1] = biological target: T1, B7-H3 on canine osteosarcoma OSCA78 cells (canine); assay: flow cytometry on OSCA78 cells, 80 nM, experiment 1
T1 construct: whole, on cells

[2] = biological target: T1, B7-H3 on canine osteosarcoma OSCA78 …; assay: flow cytometry on OSCA78 cells, 400 nM, experiment 1
[3] = biological target: T1, B7-H3 on canine osteosarcoma OSCA78 …; assay: flow cytometry on OSCA78 cells, 16 nM, experiment 2
[4] = biological target: T1, B7-H3 on canine osteosarcoma OSCA78 …; assay: flow cytometry on OSCA78 cells, 2000 nM, experiment 1
[5] = biological target: T1, B7-H3 on canine osteosarcoma OSCA78 …; assay: flow cytometry on OSCA78 cells, 400 nM, experiment 2
[6] = biological target: T1, B7-H3 on canine osteosarcoma OSCA78 …; assay: flow cytometry on OSCA78 cells, 80 nM, experiment 2
[7] = biological target: T2, canine CD16A on dog peripheral blood leukocytes / PBMC (canine, UniProt E2RP87 1-249); assay: flow cytometry, FITC protein at 2000 nM, PBMC of dog Maverick
T2 construct: Native protein on primary dog cells of various breeds
T2 sequence: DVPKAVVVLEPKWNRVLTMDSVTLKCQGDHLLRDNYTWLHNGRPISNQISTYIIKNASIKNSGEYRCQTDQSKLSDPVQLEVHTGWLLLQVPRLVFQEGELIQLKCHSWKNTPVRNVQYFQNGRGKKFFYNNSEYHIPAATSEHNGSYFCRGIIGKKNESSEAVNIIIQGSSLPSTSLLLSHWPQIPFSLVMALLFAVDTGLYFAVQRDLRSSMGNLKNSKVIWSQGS
Description: (§1) To test the binding of the anti-CD16 domain, binding was evaluated on canine peripheral blood mononuclear cells (PBMC) that contained canine NK cells, T cells, B cells, and monocytes (Table 2). A single batch of 1615B7H3 TriKE (SEQ ID NO:56) was directly labeled with FITC fluorochrome and tested. The binding of the anti-CD16 fragment alone (anti-CD16-FITC) was tested as a positive control. Binding of an anti-B7H3 fragment alone (antiB7H3-FITC) was tested as a negative control.

[8] = biological target: T2, canine CD16A on dog peripheral blood …; assay: flow cytometry, FITC protein at 80 nM, PBMC of dog Never
Description: as §1

[9] = biological target: T2, canine CD16A on dog peripheral blood …; assay: flow cytometry, FITC protein at 2000 nM, PBMC of dog Never
Description: as §1

[10] = biological target: T2, canine CD16A on dog peripheral blood …; assay: flow cytometry, FITC protein at 400 nM, PBMC of dog Maverick
Description: as §1

[11] = biological target: T2, canine CD16A on dog peripheral blood …; assay: flow cytometry, FITC protein at 2000 nM, dog PBMC treated with IL-15 for 6 days
Description: as §1

[12] = biological target: T2, canine CD16A on dog peripheral blood …; assay: flow cytometry, FITC protein at 400 nM, dog PBMC treated with IL-15 for 6 days
Description: as §1

[13] = biological target: T2, canine CD16A on dog peripheral blood …; assay: flow cytometry, FITC protein at 80 nM, dog PBMC treated with IL-15 for 6 days
Description: as §1

[14] = biological target: T2, canine CD16A on dog peripheral blood …; assay: flow cytometry, FITC protein at 400 nM, PBMC of dog Never
Description: as §1

[15] = biological target: T2, canine CD16A on dog peripheral blood …; assay: flow cytometry, FITC protein at 80 nM, PBMC of dog Maverick
Description: as §1

[16] = biological target: T3, recombinant intact canine CD64 with an N-terminus HA-tag, expressed on NK-92 cells (canine); assay: flow cytometry on NK-92 cCD16A and NK-92 cCD64 cells (FIG. 3A)
T3 construct: also called NK-92 canine CD64 cells; NK-92 cCD64; not shown: N-terminal HA tag from the pDisplay cassette
T3 chain: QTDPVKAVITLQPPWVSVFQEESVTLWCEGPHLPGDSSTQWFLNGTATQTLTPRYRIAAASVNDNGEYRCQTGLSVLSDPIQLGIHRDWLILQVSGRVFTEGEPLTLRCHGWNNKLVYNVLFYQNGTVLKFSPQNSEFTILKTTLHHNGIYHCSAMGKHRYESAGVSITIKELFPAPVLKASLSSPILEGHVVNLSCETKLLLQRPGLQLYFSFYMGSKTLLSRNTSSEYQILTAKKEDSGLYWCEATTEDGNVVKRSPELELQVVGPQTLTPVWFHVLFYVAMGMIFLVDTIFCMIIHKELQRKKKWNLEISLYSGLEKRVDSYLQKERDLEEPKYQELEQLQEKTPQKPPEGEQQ

[17] = biological target: T2, canine CD16A on dog peripheral blood …; assay: flow cytometry on dog peripheral blood leukocytes (FIG. 4A)
Source text: Flow cytometry was used to examine the expression patterns of CD16A and CD64 by dog peripheral blood leukocytes. The general leukocyte populations of polymorphonuclear cells (PMNs), monocytes, and lymphocytes were identified based on their characteristic forward and side light-scattering and by their expression of well characterized markers, including CD4 (neutrophils and lymphocyte), CD14 (monocytes), and CD5 (T cells) (FIG. 4A). The anti-canine CD16A clone 4A5 stained a subset of monocytes and lymphocytes, and for some dogs it marginally stained PMNs and/or a small subset of cells in this population (FIG. 4A). This staining pattern was consistent for all the anti-canine CD16 mAbs generated, which had distinct complementarity-determining region nucleotide sequences from 4A5. […]
For cell staining, nonspecific antibody binding sites were blocked for 30 min using 25% canine serum and 25% FBS in PBS buffer (without Ca⁺² and Mg⁺²) (Lonza Group AG, Basel, Switzerland) prior to their staining with antibodies. All cell staining was analyzed on a FACSCelesta instruments (BD Biosciences, Franklin Lakes, N.J.), as previously described (Snyder et al., Vet Immunol Immunopathol 231:110162, 2021). Briefly, for controls, fluorescence minus one was used as well as appropriate isotype-matched antibodies. […]

binding (flow cytometry read-out, unit not given) [1]: 64
binding (flow cytometry read-out, unit not given) [2]: 98.8
binding (flow cytometry read-out, unit not given) [3]: 2.8
binding (flow cytometry read-out, unit not given) [4]: 99.8
binding (flow cytometry read-out, unit not given) [5]: 93.7
binding (flow cytometry read-out, unit not given) [6]: 42.1
B1: anti-B7H3 antibody fragment alone (VHH)
VHH: QVQLVESGGGLVQPGGSLRLSCAASGFTFSSYWMYWVRQTPGKGLEWVSTINRDGSATWYADSVKGRFTISRDNAKNTGYLQMNSLKPDDTAVYYCVSDPDNYSSDEMVPYWGQGTQVTVSS
modifications: FITC-labelled in the PBMC assay (sites not given)
notes: The kind VHH is inferred from the single variable domain and the label 1615CAMB7H3; also called antiB7H3-FITC; anti-B7H3 fragment

binding (flow cytometry read-out, unit not given) [7]: 43.6
binding (flow cytometry read-out, unit not given) [8]: 3.7
binding (flow cytometry read-out, unit not given) [9]: 23.8
binding (flow cytometry read-out, unit not given) [10]: 26.5
binding (flow cytometry read-out, unit not given) [11]: 35.8
binding (flow cytometry read-out, unit not given) [12]: 15.3
binding (flow cytometry read-out, unit not given) [13]: 6.2
binding (flow cytometry read-out, unit not given) [14]: 8.8
binding (flow cytometry read-out, unit not given) [15]: 10.1
B2: anti-canine CD16 antibody fragment alone (other)
VL: MEQILLTQSPAIMSASPGEKVTMTCSASSSVGYMHWYQQKPGSSPKPWIYDTSDLASGFPARFSGSRSGTSYSLIISSMEAEDAATYYCHQRSFYPYTFGGGTKLEIK
VH: EVQLQQSGAELVRSGASVKLSCTASGFNIKDYYMHWVKQRPEQGLEWIGWLDPENGDTVYAPKFQGRATMTADTSSNTAYLHLSSLTSEDTAVYYCNALVYSLLGQDYWGQGTTLTVSS
modifications: FITC-labelled in the PBMC assay (sites not given)
notes: also called anti-CD16; anti-CD16-FITC

binding result [16]: no binding
binding result [17]: binds
B3: anti-canine CD16A mAb (clone 4A5) (antibody, IgG1)
VH: EVQLQQSGAELVRSGASVKLSCTASGFNIKDYYMHWVKQRPEQGLEWIGWLDPENGDTVYAPKFQGRATMTADTSSNTAYLHLSSLTSEDTAVYYCNALVYSLLGQDYWGQGTTLTVSSAKTTPPSVYPLAPGSAAQTNSMVTLGCLVKGYFPEPVTVTWNSGSLSSGVHTFPAVLQSDLYTLSSSVTVPSS
VL: QILLTQSPAIMSASPGEKVTMTCSASSSVGYMHWYQQKPGSSPKPWIYDTSDLASGFPARFSGSRSGTSYSLIISSMEAEDAATYYCHQRSFYPYTFGGGTKLEIKRADAAPTVSIFPPSSEQLTSGGASVVCFLNNFYPKDINVKWKIDGSERQNGVLNSWTDQDSKDSTYSMSSTLTLTK
notes: also called anti-CD16A mAb clone 4A5; anti-canine CD16 (clone 4A5)
